From US20040203067

Target: STAT-3 (endogenous, in 32Dcl3-derived cells) (UniProt P42227)
Sequence (P42227 2-770): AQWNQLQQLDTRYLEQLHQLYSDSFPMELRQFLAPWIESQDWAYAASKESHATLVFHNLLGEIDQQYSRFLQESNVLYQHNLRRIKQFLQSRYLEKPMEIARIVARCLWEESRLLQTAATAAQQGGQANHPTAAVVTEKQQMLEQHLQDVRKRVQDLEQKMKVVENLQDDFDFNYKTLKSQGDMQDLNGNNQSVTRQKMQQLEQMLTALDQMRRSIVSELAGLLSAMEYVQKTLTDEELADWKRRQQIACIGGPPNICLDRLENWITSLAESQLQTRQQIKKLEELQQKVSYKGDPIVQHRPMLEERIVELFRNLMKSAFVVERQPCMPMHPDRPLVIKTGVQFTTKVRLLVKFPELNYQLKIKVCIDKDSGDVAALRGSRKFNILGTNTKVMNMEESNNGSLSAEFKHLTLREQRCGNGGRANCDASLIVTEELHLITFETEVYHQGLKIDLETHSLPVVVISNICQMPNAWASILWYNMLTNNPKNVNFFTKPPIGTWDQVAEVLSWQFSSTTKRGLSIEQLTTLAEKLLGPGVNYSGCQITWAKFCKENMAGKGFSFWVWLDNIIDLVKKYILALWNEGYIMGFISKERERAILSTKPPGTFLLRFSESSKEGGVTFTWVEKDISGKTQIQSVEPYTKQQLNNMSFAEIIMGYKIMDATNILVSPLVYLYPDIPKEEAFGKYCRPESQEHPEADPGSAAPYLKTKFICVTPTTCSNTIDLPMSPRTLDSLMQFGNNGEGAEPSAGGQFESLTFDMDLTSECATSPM

With “c-Src (endogenous, activated, in IL-3 stimulated 32Dcl3 cells)” the “tyrosine phosphorylation of STAT-3 (4G10 Western blot of STAT-3 immunoprecipitates)” value was “phosphorylation of STAT-3 following IL-3 stimulation of 32Dcl3 cells is blocked by AMSrc”.
